Experimental data: patent US12104181B2, “Compositions and methods for treating viral infections targeting TRIM7” (THE BOARD OF REGENTS OF THE UNIVERSITY OF TEXAS SYSTEM, priority 2021, dated 2024)

B1: RNF38: human RING type E3 ligase expressed from lentiviral vector (protein, UniProt Q9H0F5 1-515, looked up)
E3 ubiquitin-protein ligase …: MACKISPGANSASLPGHPNKVICERVRLQSLFPLLPSDQNTTVQEDAHFKAFFQSEDSPSPKRQRLSHSVFDYTSASPAPSPPMRPWEMTSNRQPPSVRPSQHHFSGERCNTPARNRRSPPVRRQRGRRDRLSRHNSISQDENYHHLPYAQQQAIEEPRAFHPPNVSPRLLHPAAHPPQQNAVMVDIHDQLHQGTVPVSYTVTTVAPHGIPLCTGQHIPACSTQQVPGCSVVFSGQHLPVCSVPPPMLQACSVQHLPVPYAAFPPLISSDPFLIHPPHLSPHHPPHLPPPGQFVPFQTQQSRSPLQRIENEVELLGEHLPVGGFTYPPSAHPPTLPPSAPLQFLTHDPLHQEVSFGVPYPPFMPRRLTGRSRYRSQQPIPPPPYHPSLLPYVLSMLPVPPAVGPTFSFELDVEDGEVENYEALLNLAERLGEAKPRGLTKADIEQLPSYRFNPNNHQSEQTLCVVCMCDFESRQLLRVLPCNHEFHAKCVDKWLKANRTCPICRADASEVHRDSE
B2: RNF214: human RING type E3 ligase expressed from lentiviral vector (protein, UniProt Q8ND24 2-703, looked up)
RING finger protein 214: AASEVAGVVANAPSPPESSSLCASKSDEGLPDGLSTKDSAQKQKNSPLLSVSSQTITKENNRNVHLEHSEQNPGSSAGDTSAAHQVVLGENLIATALCLSGSGSQSDLKDVASTAGEEGDTSLRESLHPVTRSLKAGCHTKQLASRNCSEEKSPQTSILKEGNRDTSLDFRPVVSPANGVEGVRVDQDDDQDSSSLKLSQNIAVQTDFKTADSEVNTDQDIEKNLDKMMTERTLLKERYQEVLDKQRQVENQLQVQLKQLQQRREEEMKNHQEILKAIQDVTIKREETKKKIEKEKKEFLQKEQDLKAEIEKLCEKGRREVWEMELDRLKNQDGEINRNIMEETERAWKAEILSLESRKELLVLKLEEAEKEAELHLTYLKSTPPTLETVRSKQEWETRLNGVRIMKKNVRDQFNSHIQLVRNGAKLSSLPQIPTPTLPPPPSETDFMLQVFQPSPSLAPRMPFSIGQVTMPMVMPSADPRSLSFPILNPALSQPSQPSSPLPGSHGRNSPGLGSLVSPHGPHMPPAASIPPPPGLGGVKASAETPRPQPVDKLEKILEKLLTRFPQCNKAQMTNILQQIKTARTTMAGLTMEELIQLVAARLAEHERVAASTQPLGRIRALFPAPLAQISTPMFLPSAQVSYPGRSSHAPATCKLCLMCQKLVQPSELHPMACTHVLHKECIKFWAQTNTNDTCPFCPTLK
B3: CHFR: human RING type E3 ligase expressed from lentiviral vector (protein, UniProt Q96EP1 1-664, looked up)
E3 ubiquitin-protein ligase …: MERPEEGKQSPPPQPWGRLLRLGAEEGEPHVLLRKREWTIGRRRGCDLSFPSNKLVSGDHCRIVVDEKSGQVTLEDTSTSGTVINKLKVVKKQTCPLQTGDVIYLVYRKNEPEHNVAYLYESLSEKQGMTQESFEANKENVFHGTKDTSGAGAGRGADPRVPPSSPATQVCFEEPQPSTSTSDLFPTASASSTEPSPAGRERSSSCGSGGGGISPKGSGPSVASDEVSSFASALPDRKTASFSSLEPQDQEDLEPVKKKMRGDGDLDLNGQLLVAQPRRNAQTVHEDVRAAAGKPDKMEETLTCIICQDLLHDCVSLQPCMHTFCAACYSGWMERSSLCPTCRCPVERICKNHILNNLVEAYLIQHPDKSRSEEDVQSMDARNKITQDMLQPKVRRSFSDEEGSSEDLLELSDVDSESSDISQPYVVCRQCPEYRRQAAQPPHCPAPEGEPGAPQALGDAPSTSVSLTTAVQDYVCPLQGSHALCTCCFQPMPDRRAEREQDPRVAPQQCAVCLQPFCHLYWGCTRTGCYGCLAPFCELNLGDKCLDGVLNNNSYESDILKNYLATRGLTWKNMLTESLVALQRGVFLLSDYRVTGDTVLCYCCGLRSFRELTYQYRQNIPASELPVAVTSRPDCYWGRNCRTQVKAHHAMKFNHICEQTRFKN

Tested on: coxsackievirus B3 (CVB3-GFP)
Format: cell-based
Settings: HeLa cells, replicate R1; for Percent Infected R1: GFP-positive cells within RFP-positive gate

| Molecule | Percent Infected R1 | Z score R1 |
| --- | --- | --- |
| B1 | 88.2% | −0.01 |
| B2 | 93.9% | 0.067 |
| B3 | 87.2% | −0.02 |
